Measured values: publication PMC6802120, “Concatenation of 14-3-3 with partner phosphoproteins as a tool to study their interaction” (Scientific Reports, 2019)
Several values for one entry are separate records, joined by “and”; a condition that tells them apart may be missing. Identical values can stand only once.

Tests used:
[1] = molecular target: 14-3-3σ∆C (C-terminally truncated human 14-3-3σ, residues 1-231) (human) (UniProt P31947); assay: SEC; fluorescence-assisted size-exclusion spectrochromatography, Superdex 200 Increase 5/150, SEC buffer; detection at 230 nm absorbance and Trp fluorescence (excitation 298 nm, emission 360 nm); proteins alone and mixed
[2] = molecular target: the molecule itself; assay: as above
[3] = molecular target: the molecule itself; assay: SEC; Superdex 200 Increase 5/150, 0.45 ml/min; 20 mM Tris-HCl pH 7.6, 150 mM NaCl, 0.5 mM EDTA, 1 mM DTT, 3% glycerol; low loaded protein concentration; apparent MW from column calibration
[4] = molecular target: the molecule itself; assay: SEC; same column and buffer as a1; higher loaded protein concentrations (second peak appears); apparent MW from column calibration; dimer to tetramer

Row | Molecule | stoichiometry N [1] | stoichiometry N [2] | stoichiometry N [3] | stoichiometry N [4]
1 | 14-3-3σ∆C (C-terminally truncated human 14-3-3σ, residues 1-231) (from UniProt P31947 1-231) (domain or fragment) | 2 |  |  | 
2 | pCH1 (phosphorylated peptidic chimera of 14-3-3σ(clu3)∆C with the HSPB6 phosphopeptide, residues 12-19) (other, human, phosphoserine at Ser16 of the HSPB6 peptide (phosphorylated by PKA), three extra residues left at the N-terminus after 3C cleavage; human 14-3-3σ, C-terminally truncated, residues 1-231, with the 'clu3' replacements; linker; also called phosphorylated CH1; 14-3-3-phosphopeptide chimera; not shown: His6, N-terminal, cleaved) GPHMERASLIQKAKLAEQAERYEDMAAFMKGAVEKGEELSCEERNLLSVAYKNVVGGQRAAWRVLSSIEQKSNEEGSAAAGPEVREYREKVETELQGVCDTVLGLLDSHLIKEAGDAESRVFYLKMKGDYYRYLAEVATGDDKKRIIDSARSAYQEAMDISKKEMPPTNPIRLGLALNFSVFHYEIANSPEEAISLAKTTFDEAMADLHTLSEDSYKDSTLIMQLLRDNLTLWTGSGSLRRASAPL |  | 4 and 2 |  | 
3 | HSPB6 ACD (α-crystallin domain, residues 72-149) (domain or fragment, human, UniProt O14558 72-149, looked up, human small heat shock protein HSPB6, α-crystallin domain, residues 72-149; also called ACD dimer; isolated ACD) GHFSVLLDVKHFSPEEIAVKVVGEHVEVHARHEERPDEHGFVAREFHRRYRLPPGVDPAAVTSALSPEGVLSIQAAPA |  | 2 |  | 
4 | 14-3-3-pB6 chimera (PKA-phosphorylated chimera of human 14-3-3σ(clu3)∆C and HSPB6 residues 12-153) (other, phosphoserine at Ser16 of the HSPB6 part (phosphorylated by PKA), three extra residues left at the N-terminus after 3C cleavage; human 14-3-3σ, C-terminally truncated (14-3-3σ∆C), residues 1-231, with the surface entropy reduction 'clu3' replacements; linker; the full chimera 'followed the same principles' as CH1; human small heat shock protein HSPB6, residues 12-153 (out of 160): Ser16 phosphopeptide region, rest of the NTD and the α-crystallin domain; Could …) GPHMERASLIQKAKLAEQAERYEDMAAFMKGAVEKGEELSCEERNLLSVAYKNVVGGQRAAWRVLSSIEQKSNEEGSAAAGPEVREYREKVETELQGVCDTVLGLLDSHLIKEAGDAESRVFYLKMKGDYYRYLAEVATGDDKKRIIDSARSAYQEAMDISKKEMPPTNPIRLGLALNFSVFHYEIANSPEEAISLAKTTFDEAMADLHTLSEDSYKDSTLIMQLLRDNLTLWTGSGSLRRASAPLPGLSAPGRLFDQRFGEGLLEAELAALCPTTLAPYYLRAPSVALPVAQVPTDPGHFSVLLDVKHFSPEEIAVKVVGEHVEVHARHEERPDEHGFVAREFHRRYRLPPGVDPAAVTSALSPEGVLSIQAAPASAQA |  |  | 2 | 4
5 | unphosphorylated 14-3-3-B6 chimera (human 14-3-3σ(clu3)∆C and HSPB6 residues 12-153) (other, three extra residues left at the N-terminus after 3C cleavage; human 14-3-3σ, C-terminally truncated (14-3-3σ∆C), residues 1-231, with the 'clu3' replacements; linker; the full chimera 'followed the same principles' as CH1; human small heat shock protein HSPB6, residues 12-153 (out of 160); also called unphosphorylated chimera; unphosphorylated version; source: E. coli BL21(DE3) without PKA, …) GPHMERASLIQKAKLAEQAERYEDMAAFMKGAVEKGEELSCEERNLLSVAYKNVVGGQRAAWRVLSSIEQKSNEEGSAAAGPEVREYREKVETELQGVCDTVLGLLDSHLIKEAGDAESRVFYLKMKGDYYRYLAEVATGDDKKRIIDSARSAYQEAMDISKKEMPPTNPIRLGLALNFSVFHYEIANSPEEAISLAKTTFDEAMADLHTLSEDSYKDSTLIMQLLRDNLTLWTGSGSLRRASAPLPGLSAPGRLFDQRFGEGLLEAELAALCPTTLAPYYLRAPSVALPVAQVPTDPGHFSVLLDVKHFSPEEIAVKVVGEHVEVHARHEERPDEHGFVAREFHRRYRLPPGVDPAAVTSALSPEGVLSIQAAPASAQA |  |  | 2 | 4
